In article PMC5788864:

What was measured:
[1] = target: Zika virus NS5 methyltransferase (MTase) domain, amino acids 1-264, strain FSS13025, HA-tag (Zika virus strain FSS13025); test: co-IP
[2] = target: Zika virus NS5 RNA-dependent polymerase (RdRp) domain, amino acids 275-903, strain FSS13025, HA-tag (Zika virus strain FSS13025); test: co-IP

B1: interferon regulatory factor 3 (IRF3), endogenous (natural protein)
chain: MGTPKPRILPWLVSQLDLGQLEGVAWVNKSRTRFRIPWKHGLRQDAQQEDFGIFQAWAEATGAYVPGRDKPDLPTWKRNFRSALNRKEGLRLAEDRSKDPHDPHKIYEFVNSGVGDFSQPDTSPDTNGGGSTSDTQEDILDELLGNMVLAPLPDPGPPSLAVAPEPCPQPLRSPSLDNPTPFPNLGPSENPLKRLLVPGEEWEFEVTAFYRGRQVFQQTISCPEGLRLVGSEVGDRTLPGWPVTLPDPGMSLTDRGVMSYVRHVLSCLGGGLALWRAGQWLWAQRLGHCHTYWAVSEELLPNSGHGPDGEVPKDKEGGVFDLGPFIVDLITFTEGSGRSPRYALWFCVGESWPQDQPWTKRLVMVKVVPTCLRALVEMARVGGASSLENTVDLHISNSHPLSLTSDQYKAYLQDLVEGMDFQGPGES
B1 showed a percent of the full-length NS5 binding activity to IRF3 [1] of 82% and a percent of the full-length NS5 binding activity to IRF3 [2] of 51%.
